In patent US20080003617A1 one finds percent of cells positive for A1 binding data, which are given here for one substance.

In the assay the target is A1 domain of von Willebrandt factor (vWf), His-tagged A1 antigen (human) (UniProt P04275). The experiment in a line: flow cytometry, yeast-displayed scFv with His-tagged A1 and Alexa-488 anti-His tag.

“scFv of the murine NMC-4 antibody, displayed on yeast (pYD-NMC4-scFv in EBY100) (from UniProt P32781 19-87)” came in with a percent of cells positive for A1 binding of 50 to 70%.
